In patent publication US20040058366, “Novel clock gene bmal2” (published 2004):

How the values were obtained:
[1] = biological target: cBMAL1-cCLOCK heterodimer (Gallus gallus, UniProt Q9I8T7;Q8QGQ6 Q9I8T7:1-633,Q8QGQ6:1-875); test: EMSA; two or three specific complexes; 7.5 mM MgCl2, 100 mM KCl, pH 7.6, 23 C; conditions: tags: TNT-T7 coupled transcription/translation; label: 32P; within a 39 bp EcoRI fragment excised from pCR2.1
Text: (§1) For preparation of the probe, oligonucleotides [cP2E1-S: 5′-GTGTCACACGTGAGGCTTA-3′ (Seq. ID No. 59) and cP2E1-AS: 5′-TAAGCCTCACGTGTGACAC-3′ (Seq. ID No. 60)] were synthesized that correspond to the E-box sequence and its flanking sequences within a putative promoter/enhancer region of cPer2 gene. These oligonucleotides synthesized were annealed together and subcloned into a pCR2.1 vector using TOPO-TA cloning kit (Invitrogen, Calif.), from which a 39 bp fragment was excised with a restriction enzyme EcoRI and used. The above-mentioned cBMAL1, cBMAL2 and cCLOCK were prepared by being transcribed and translated in vitro from an expression plasmid containing the cDNA of cBmal1, cBmal2 or cClock with the aid of TNT-T7 Quick Coupled Transcription/Translation System (Promega). […]
(§2) 5 μL each of the protein mixtures thus obtained (BMAL1+BMAL2, BMAL1+CLOCK, BMAL2+CLOCK) was added with 32 μL of buffer [25 mM Hepes-KOH (pH 7.6), 100 mM KCl, 0.1 mM EDTA, 10% (v/v) glycerol, 7.5 mM MgCl₂, 1 mM DTT and 1 μg denatured salmon sperm DNA] containing a ³²P-labeled probe (33 fmoles, 1.3×10⁵ cpm) andwas incubated for 20 min at 23° C. After the incubation, each mixture was separated by a 6% polyacrylamide gel electrophoresis and analyzed similarly as in Example 7 using a FLA2000 bioimage analyzer (FUJI PHOTO FILM). […]

[2] = biological target: T1, cBMAL2-cCLOCK heterodimer (Gallus gallus, UniProt Q8QGQ7;Q8QGQ6 Q8QGQ7:1-622,Q8QGQ6:1-875); test: as above; conditions: tags: TNT-T7 coupled transcription/translation; label: 32P; within a 39 bp EcoRI fragment excised from pCR2.1
T1 sequence 1: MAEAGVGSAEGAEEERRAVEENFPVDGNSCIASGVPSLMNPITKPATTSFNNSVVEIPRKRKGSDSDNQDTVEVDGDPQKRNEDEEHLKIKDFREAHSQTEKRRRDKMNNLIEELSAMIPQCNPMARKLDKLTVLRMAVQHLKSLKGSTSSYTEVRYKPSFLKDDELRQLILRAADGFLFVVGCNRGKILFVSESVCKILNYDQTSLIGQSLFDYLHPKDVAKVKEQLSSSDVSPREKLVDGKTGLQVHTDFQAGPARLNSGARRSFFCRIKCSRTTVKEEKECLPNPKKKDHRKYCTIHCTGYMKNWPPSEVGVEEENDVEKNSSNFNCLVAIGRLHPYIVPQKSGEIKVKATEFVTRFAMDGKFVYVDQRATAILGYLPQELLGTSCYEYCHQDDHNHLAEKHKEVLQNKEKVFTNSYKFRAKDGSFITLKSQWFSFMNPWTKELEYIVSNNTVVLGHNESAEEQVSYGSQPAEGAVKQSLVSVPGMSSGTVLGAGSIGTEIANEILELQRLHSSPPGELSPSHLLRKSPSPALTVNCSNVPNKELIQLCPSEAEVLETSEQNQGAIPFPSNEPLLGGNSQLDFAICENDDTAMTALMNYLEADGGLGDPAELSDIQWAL
T1 sequence 2: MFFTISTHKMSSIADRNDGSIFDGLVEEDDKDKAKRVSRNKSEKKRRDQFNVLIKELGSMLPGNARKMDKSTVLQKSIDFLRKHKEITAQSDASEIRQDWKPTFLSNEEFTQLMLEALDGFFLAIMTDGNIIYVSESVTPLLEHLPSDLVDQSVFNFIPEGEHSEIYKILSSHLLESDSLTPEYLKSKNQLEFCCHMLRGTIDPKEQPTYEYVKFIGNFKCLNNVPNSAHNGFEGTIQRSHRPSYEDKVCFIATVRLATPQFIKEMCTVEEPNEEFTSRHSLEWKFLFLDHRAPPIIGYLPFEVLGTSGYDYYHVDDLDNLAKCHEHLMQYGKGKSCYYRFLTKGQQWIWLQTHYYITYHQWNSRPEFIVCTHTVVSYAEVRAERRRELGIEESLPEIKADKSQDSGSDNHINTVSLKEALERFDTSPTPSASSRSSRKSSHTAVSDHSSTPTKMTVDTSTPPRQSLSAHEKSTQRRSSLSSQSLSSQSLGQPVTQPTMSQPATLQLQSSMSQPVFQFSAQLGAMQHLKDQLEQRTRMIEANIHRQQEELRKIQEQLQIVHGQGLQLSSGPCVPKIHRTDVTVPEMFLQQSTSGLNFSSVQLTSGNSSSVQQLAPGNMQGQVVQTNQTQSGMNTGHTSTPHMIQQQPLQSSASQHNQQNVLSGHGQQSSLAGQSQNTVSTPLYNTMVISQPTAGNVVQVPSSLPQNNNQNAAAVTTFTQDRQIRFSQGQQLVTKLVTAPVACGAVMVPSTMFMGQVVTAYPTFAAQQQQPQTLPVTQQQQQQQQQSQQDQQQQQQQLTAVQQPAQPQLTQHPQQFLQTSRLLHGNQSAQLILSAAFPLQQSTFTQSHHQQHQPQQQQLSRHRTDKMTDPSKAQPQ
Text: as §1, §2

cBMAL1 = cBMAL1 (Gallus gallus, UniProt Q9I8T7 Q9I8T7:1-633); test: EMSA; no specific band with cBMAL1 alone; conditions: label: 32P; within a 39 bp EcoRI fragment excised from pCR2.1
cBMAL1, sequence (Q9I8T7 whole entry, the tested form may be a part, one chain of several): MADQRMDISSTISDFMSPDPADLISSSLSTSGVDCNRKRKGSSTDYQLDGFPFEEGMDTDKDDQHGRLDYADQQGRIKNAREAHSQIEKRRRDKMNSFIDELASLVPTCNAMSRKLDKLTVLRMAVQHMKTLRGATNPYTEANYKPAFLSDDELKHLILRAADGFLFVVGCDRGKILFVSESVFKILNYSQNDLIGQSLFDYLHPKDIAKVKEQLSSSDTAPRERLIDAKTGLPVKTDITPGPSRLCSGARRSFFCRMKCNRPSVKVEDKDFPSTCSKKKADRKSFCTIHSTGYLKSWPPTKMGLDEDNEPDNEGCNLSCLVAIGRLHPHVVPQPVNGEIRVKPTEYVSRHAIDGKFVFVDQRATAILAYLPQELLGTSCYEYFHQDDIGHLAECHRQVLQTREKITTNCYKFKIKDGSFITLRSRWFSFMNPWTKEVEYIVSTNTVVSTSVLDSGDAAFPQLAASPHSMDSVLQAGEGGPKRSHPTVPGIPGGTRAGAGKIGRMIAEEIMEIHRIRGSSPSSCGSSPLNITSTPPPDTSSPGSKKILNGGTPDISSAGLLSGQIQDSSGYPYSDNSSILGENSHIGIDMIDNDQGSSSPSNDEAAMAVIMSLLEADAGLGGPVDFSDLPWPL
Text: as §1, §2

cBMAL2 = biological target: T2, cBMAL2 (Gallus gallus, UniProt Q8QGQ7 SEQ:1-622); test: EMSA; no specific band with cBMAL2 alone; conditions: label: 32P; within a 39 bp EcoRI fragment excised from pCR2.1
T2 sequence: T1 sequence 1
Text: as §1, §2

cCLOCK = biological target: T3, cCLOCK (Gallus gallus, UniProt Q8QGQ6 Q8QGQ6:1-875); test: EMSA; no specific band with cCLOCK alone; conditions: label: 32P; within a 39 bp EcoRI fragment excised from pCR2.1
T3 sequence: T1 sequence 2
Text: as §1, §2

cBMAL1-cCLOCK heterodimer, sequence (Q9I8T7 whole entry, the tested form may be a part, one chain of several): as above

B1: cPer2 E-box probe (dsDNA)
DNA 1: GTGTCACACGTGAGGCTTA
DNA 2: TAAGCCTCACGTGTGACAC
- binding result [1]: binds
- binding result [2]: binds
- binding result (cBMAL1): no binding
- binding result (cBMAL2): no binding
- binding result (cCLOCK): no binding
